# Data taken from US20240109974A1 (SHANDONG SIMCERE BIOPHARMACEUTICAL, published 2024).
# T1: human TNFR2 (Novoprotein, Cat #C830) (human, UniProt P20333 23-257, limits assumed)
# T1 construct: construct not described; also called human TNFR2 protein
# T1 sequence (looked up): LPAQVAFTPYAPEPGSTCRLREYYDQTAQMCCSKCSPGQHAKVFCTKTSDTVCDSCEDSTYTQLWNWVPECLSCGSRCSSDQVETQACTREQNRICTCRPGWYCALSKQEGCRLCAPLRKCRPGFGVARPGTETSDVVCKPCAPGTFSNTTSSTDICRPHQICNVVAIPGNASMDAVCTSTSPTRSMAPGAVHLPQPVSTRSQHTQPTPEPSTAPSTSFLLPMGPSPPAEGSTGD
# T2: human TNFR2 on the surface of CHO-TNFR2 cells (human, UniProt P20333 23-461)
# T2 construct: whole, on cells
# T2 sequence (looked up): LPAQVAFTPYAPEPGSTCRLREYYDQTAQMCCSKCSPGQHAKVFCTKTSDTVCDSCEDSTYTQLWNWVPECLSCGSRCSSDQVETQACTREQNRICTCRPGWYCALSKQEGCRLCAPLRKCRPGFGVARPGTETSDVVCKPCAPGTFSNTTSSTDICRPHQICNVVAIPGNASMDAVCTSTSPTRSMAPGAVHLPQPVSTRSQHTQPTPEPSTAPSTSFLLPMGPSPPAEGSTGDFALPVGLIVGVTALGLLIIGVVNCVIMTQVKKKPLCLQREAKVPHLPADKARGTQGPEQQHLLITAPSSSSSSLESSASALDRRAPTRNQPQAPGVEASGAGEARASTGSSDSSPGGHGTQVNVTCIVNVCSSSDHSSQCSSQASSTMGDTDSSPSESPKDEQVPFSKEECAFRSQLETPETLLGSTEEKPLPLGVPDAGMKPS
# Tests used:
# [1] = target: T1, human TNFR2 (Novoprotein, Cat #C830); assay: competition ELISA, competitor human TNFα-Biotin; AUC against 219-WT
# Procedure: 1 μg/ml human TNFR2 (Novoprotein, Cat #C830) was pre-coated with 100 μl/well […] in an ELISA plate. All the test TNFR2 antibodies were subjected to 2.5-fold gradient dilution from the highest concentration of 30 μg/ml; the diluted antibodies were mixed with 15 ng/ml human TNFα-Biotin (Acro Biosystem, Cat #TNA-H82E3) in equal volume, respectively; the resulting mixture was added to the ELISA plate at 100 μl/well, and incubated with shaking at room temperature for 2.0 hours. The plate was washed, and then a Streptavidin-HRP working solution (diluted at 1:10000) was added at 100 μl/well, and the mixture was incubated with shaking at room temperature for 40 minutes. The plate was washed again, and then the substrate TMB of HRP was added to develop colour. A stop solution was added to stop the reaction, and then a microplate reader (MD 13) was used to read the absorbance value. The inhibitory curve of an antibody was drawn with antibody concentration as the abscissa and corresponding OD value as the ordinate, and fitted with four parameters (GraphPad Prism9) to calculate the IC50 value. The smaller the IC50 value, the stronger the ability of an antibody to inhibit the binding of human TNFα to human TNFR2. The blocking effect of a humanized antibody was normalized to its corresponding human-murine chimeric antibody WT. The higher the percentage value, the better the inhibitory effect of the humanized antibody.
# [2] = target: T2, human TNFR2 on the surface of CHO-TNFR2 …; assay: competition flow cytometry on CHO-TNFR2 cells, competitor TNFα-biotin; IC50 against 219-WT
# Procedure: (§1) CHO stable cells highly expressing human TNFR2 were used for the experiment (the same as CHO-TNFR2 in Example 4). The CHO-TNFR2 cells were digested, washed twice with DPBS, then stained with Live/Dead (L/D) (20 minutes at room temperature), and plated at a density of 1×10⁵ cells/50 μl/well. A test anti-TNFR2 antibody was diluted to 6 μg/ml with a staining buffer as the starting concentration: the antibody was subjected to 3.33-fold gradient dilution, with a total of 7 concentration points. The diluted antibody was added to the plated cells at 50 μl/well, and the mixture was mixed well by gentle pipetting, and incubated at 4° C. for 30 minutes. Then the diluted 100 ng/ml of human TNFα-biotin was added at 100 μl/well, and the mixture was mixed well by gentle pipetting, and then incubated at 4° C. for 30 minutes. The mixture was washed twice with a staining buffer, and then 0.12 μg/ml PE-streptavidin (BioLegend, Cat #405204) was added at 100 μl/well; the resulting mixture was incubated at 4° C. for 30 minutes. The mixture was washed twice with a staining buffer, and then 150 μl of staining buffer was added to resuspend the cells; signals were detected by a flow cytometer (Thermo Attune NxT). The inhibitory curve of an antibody was drawn with antibody concentration as the abscissa and corresponding MFI value as the ordinate, and fitted with four parameters (GraphPad Prism9) to calculate the IC50 value. The smaller the IC50 value, the stronger the ability of an antibody to inhibit the binding of human TNFα to human TNFR2. The blocking effect of a humanized antibody was normalized to its corresponding human-murine chimeric WT antibody. The higher the percentage value, the better the inhibitory effect of the humanized antibody.
# [3] = target: T2, human TNFR2 on the surface of CHO-TNFR2 …; assay: competition flow cytometry on CHO-TNFR2 cells, competitor TNFα-biotin; AUC against 001-WT
# Procedure: as §1
Binder,% Relative activity (WT antibody/test antibody) [1] [%],% Relative activity (WT antibody/test antibody) [2] [%],% Relative activity (WT antibody/test antibody) [3] [%]
"219-Hu3 (antibody, V domains shown, also called VH5 + VL5) VH: QVQLVQSGAEVKKPGSSVKVSCKASGYSFTNYWMNWVRQAPGQGLEWMGMIHPSDTETRLNQNFKDRVTITADKSTSTAYMELSSLRSEDTAVYYCARGEGLGAARSVSMDYWGQGTLVTVSS VL: DIQMTQSPSSLSASVGDRVTITCRASQDISNYLNWYQQKPDGTVKLLIYYTAILHSGVPSRFSGSGSGTDYSLTISSLQPEDFATYFCQQGNTLPWTFGQGTKVEIK",103,120,
"001-Hu5 (antibody, V domains shown, Humanized form of #001; also called VH1 + VL4) VH: EVQLVESGGGLVQPGGSLRLSCAASGFAFSTYDLSWVRQAPGKGLEWVAYINNGGISTYYSDTVKGRFTISRDNAKNTLYLQMNSLRAEDTAVYYCVRGPFYGSANYFDYWGQGTLVTVSS VL: DIQMTQSPSSLSASVGDRVTITCRTSESIYSNLPWYQQKPGKSPKLLVYDATKLAEGVPSRFSGSGSGTDYTLTISSLQPEDFATYYCQHFWVTPWTFGQGTKVEIK",,,93.1
"001-Hu1 (antibody, V domains shown, Humanized form of #001; also called VH1 + VL1) VH: EVQLVESGGGLVQPGGSLRLSCAASGFAFSTYDLSWVRQAPGKGLEWVAYINNGGISTYYSDTVKGRFTISRDNAKNTLYLQMNSLRAEDTAVYYCVRGPFYGSANYFDYWGQGTLVTVSS VL: DIQMTQSPSSLSASVGDRVTITCRTSESIYSNLPWYQQKPGKAPKLLLYDATKLAEGVPSRFSGSGSGTDYTLTISSLQPEDFATYYCQHFWVTPWTFGQGTKVEIK",,,97.4
"001-Hu3 (antibody, V domains shown, Humanized form of #001; also called VH1 + VL3) VH: EVQLVESGGGLVQPGGSLRLSCAASGFAFSTYDLSWVRQAPGKGLEWVAYINNGGISTYYSDTVKGRFTISRDNAKNTLYLQMNSLRAEDTAVYYCVRGPFYGSANYFDYWGQGTLVTVSS VL: DIQMTQSPSSLSASVGDRVTITCRTSESIYSNLPWYQQKPGKAPKLLIYDATKLAEGVPSRFSGSGSGTDYTLTISSLQPEDFATYYCQHFWVTPWTFGQGTKVEIK",,,97.8
"001-Hu2 (antibody, V domains shown, Humanized form of #001; also called VH2 + VL2) VH: EVQLVESGGGLVQPGGSLRLSCAASGFAFSTYDLSWVRQAPGKGLEWVAYINNGGISTYYSDTVKGRFTISRDNAKNSLYLQMNSLRAEDTAVYYCVRGPFYGSANYFDYWGQGTLVTVSS VL: DIQMTQSPSSLSASVGDRVTITCRTSESIYSNLPWYQQKPGKSPKLLIYDATKLAEGVPSRFSGSGSGTDFTLTISSLQPEDFATYYCQHFWVTPWTFGQGTKVEIK",,,95.8
"001-Hu4 (antibody, V domains shown, Humanized form of #001; also called VH2 + VL4) VH: EVQLVESGGGLVQPGGSLRLSCAASGFAFSTYDLSWVRQAPGKGLEWVAYINNGGISTYYSDTVKGRFTISRDNAKNSLYLQMNSLRAEDTAVYYCVRGPFYGSANYFDYWGQGTLVTVSS VL: DIQMTQSPSSLSASVGDRVTITCRTSESIYSNLPWYQQKPGKSPKLLVYDATKLAEGVPSRFSGSGSGTDYTLTISSLQPEDFATYYCQHFWVTPWTFGQGTKVEIK",,,93.7

# Results, then the binder that gave them:
% Relative activity (WT antibody/test antibody) [1] [%],% Relative activity (WT antibody/test antibody) [2] [%],% Relative activity (WT antibody/test antibody) [3] [%],Binder
106,138,,"219-Hu5 (antibody, V domains shown, also called VH7 + VL5) VH: QVQLVQSGAEVKKPGSSVKVSCKASGYSFTNYWMNWVRQAPGQGLEWMGMIHPSDTETRLNQNFKDRVTITVDKSTSTAYMELSSLRSEDTAVYYCARGEGLGAARSVSMDYWGQGTLVTVSS VL: DIQMTQSPSSLSASVGDRVTITCRASQDISNYLNWYQQKPDGTVKLLIYYTAILHSGVPSRFSGSGSGTDYSLTISSLQPEDFATYFCQQGNTLPWTFGQGTKVEIK"
104,127,,"219-Hu2 (antibody, V domains shown, also called VH4 + VL5) VH: QVQLVQSGAEVKKPGSSVKVSCKASGYSFTNYWMNWVRQAPGQGLEWMGMIHPSDTETRLNQNFKDKATITADKSTSTAYMELSSLRSEDTAVYYCARGEGLGAARSVSMDYWGQGTLVTVSS VL: DIQMTQSPSSLSASVGDRVTITCRASQDISNYLNWYQQKPDGTVKLLIYYTAILHSGVPSRFSGSGSGTDYSLTISSLQPEDFATYFCQQGNTLPWTFGQGTKVEIK"
105,106,,"219-Hu1 (antibody, V domains shown, also called VH3 + VL5) VH: QVQLVQSGAEVKKPGASVKVSCKASGYSFTNYWMNWVRQAPGQRLEWMGMIHPSDTETRLNQNFKDRVTITRDTSASTAYMELSSLRSEDTAVYYCARGEGLGAARSVSMDYWGQGTLVTVSS VL: DIQMTQSPSSLSASVGDRVTITCRASQDISNYLNWYQQKPDGTVKLLIYYTAILHSGVPSRFSGSGSGTDYSLTISSLQPEDFATYFCQQGNTLPWTFGQGTKVEIK"
105,124,,"219-Hu4 (antibody, V domains shown, also called VH6 + VL5) VH: QVQLVQSGAEVKKPGSSVKVSCKASGYSFTNYWMNWVKQAPGQGLEWIGMIHPSDTETRLNQNFKDKATLTVDKSTSTAYMELSSLRSEDTAVYYCARGEGLGAARSVSMDYWGQGTLVTVSS VL: DIQMTQSPSSLSASVGDRVTITCRASQDISNYLNWYQQKPDGTVKLLIYYTAILHSGVPSRFSGSGSGTDYSLTISSLQPEDFATYFCQQGNTLPWTFGQGTKVEIK"
